Experiments:
Format in all cases: physicochemical
[1] = Apparent miscibility of gelatin powder with peptide solution or saline (syringe mixing); settings: various mixing ratios, mixed between two luer-lock syringes, plated on glass slide
Method: Gelatin powder (Surgiflo®) was separately mixed with saline and RADA16 2.5% solution (PuraMatrix®) to determine their apparent miscibility. Gelatin powders were placed in a luer-lock syringe and saline or RADA16 2.5% solution (PuraMatrix®) was placed in another luer-lock syringe. The syringes were connected to mix the contents of the two syringes by moving the plungers back and forth, for example, six times until the consistency was even. The mixtures were plated on a glass slide. FIG. 3 presents images of gelatin powder (Surgiflo®) and saline mixtures (upside images) and gelatin powder and RADA16 2.5% (PuraMatrix®) mixtures at various mixing ratios.
Gelatin powder (Surgiflo®) was mixed with IEIK13 1.3% (pH 3.0) solution to determine its apparent miscibility. Gelatin powders were placed in a luer-lock syringe and IEIK13 1.3% (pH 3.0) was placed in another luor-lock syringe. The syringes were connected to mix contents of the two syringes by moving the plungers back and forth, for example, six times until the consistency was even. The mixtures were plated on a glass slide. FIG. 9 presents images of gelatin powder (Surgiflo®) and IEIK13 mixtures at various mixing ratios.

[2] = Congo Red assay of gel formation of peptide solutions with hemostatic powders; settings: for gel formation when mixed with hemostatic powder compared with pure peptide solution: Congo Red assay, visual
Method: A Congo Red assay was performed to determine gel formation of peptide solutions in a saline buffer solution (pH 7.4) when used with hemostatic powders.
Pure self-assembling peptide solution (PuraMatrix®), and peptide solution/hemostatic powders (Surgiflo®, Ethicon) mixtures were plated on a glass slide. After 30 seconds, 1% Congo Red solution in saline buffer solution (pH 7.4) was added around and on top of the gel aliquots and then the excess Congo Red solution was wiped off prior to examination. Visualization of gel formation determined the success or failure of gelation. […] In (1) and (2), self-assembling peptide solution (PuraMatrix®) before and after Congo red assay, respectively is shown. In (3) and (4), PuraMatrix® mixed with absorbable gelatin powder (Surgiflo®, Ethicon) at a ratio of 2 to 1 (v/w) before and after Congo red assay, respectively is shown. In (5) and (6), PuraMatrix® mixed with absorbable gelatin powder (Surgiflo®, Ethicon) at a ratio of 5 to 1 (v/w) before and after Congo red assay, respectively is shown.
Pure self-assembling peptide solution (IEIK13 1.3% at pH3.0) and peptide solution/hemostatic powders (Surgiflo®, Ethicon) mixture were plated on a glass slide. After 30 seconds, 1% Congo Red solution in saline buffer solution ([…]) was added around and on top of the gel aliquots and then the excess Congo Red solution was wiped off prior to examination. Visualization of gel formation determined the success or failure of gelation. […] In (1) and (2), self-assembling peptide solution (IEIK13 1.3% at pH 3.0) before and after Congo Red assay, respectively, is shown. In (3) and (4), IEIK13 1.3% at pH 3.0 mixed with absorbable gelatin powder, (Surgiflo®, Ethicon) at a ratio of 2 to 1 (v/w) before and after Congo Red assay, respectively, is shown. The interval of grids in FIG. 8 is 1 cm.

[3] = Rheology (storage/loss modulus, frequency sweep) before and after DMEM treatment; settings: DMEM for 20 min; 25° C.; 1-10 rad/sec
Method: The rheological properties of gelatin powders with saline, self-assembling peptide, and gelatin powder with self-assembling peptide were evaluated using a rheometer (DHR-1, TA Instruments) with 20 mm plates. The samples were placed on the rheometer plate and the moduli were measured at 25° C. with the plates placed at a measuring geometry gap of 1000 μm. Measurements were performed after 2 minutes of relaxation time at 25° C. Frequency sweep tests were performed at 1 rad/sec˜10 red/sec of oscillation stress with strain at 0.01.
Pure RADA16 2.5% (PuraMatrix®), gelatin powder (Surgiflo®) mixed with saline at 2:1 w/v ratio, and gelatin powder mixed with RADA16 2.5% at various mixing ratios were all tested. These samples were treated with DMEM for 20 min after their frequency tests were performed without DMEM treatment. FIG. 4 presents the rheology of gelatin powders mixed with saline at a ratio of 2:1 w/v before and after DMEM treatment. FIG. 5 presents the rheology of RADA16 2.5% solution before and after DMEM treatment. FIG. 6 presents the rheology of gelatin powders mixed with RADA16 2.5% at a ratio of 1:5 w/v before and after DMEM treatment.

[4] = peptide solution mixed with gelatin powder (Surgiflo®) at a ratio of 2 to 1 (v/w), 1% Congo Red in saline buffer solution (pH 7.4)

| Substance | apparent miscibility with gelatin powder (Surgiflo®) [1] | apparent miscibility with gelatin powder (Surgiflo®) ([1]; listed as IEIK13) | gel formation when mixed with hemostatic powder compared with pure peptide solution [2] | gel formation (gelation) ([2]; mixed with a hemostatic powder at a ratio of 5 to 1, expected, not tested) | gel formation (gelation) [2, 4] | change of moduli (storage/loss) after DMEM treatment [3] | apparent miscibility with gelatin powder (Surgiflo®) ([1]; listed as RADA16) | gel formation (gelation) ([2]; peptide solution mixed with gelatin powder (Surgiflo®) at a ratio of 5 to 1 (v/w), 1% Congo Red in saline buffer solution (pH 7.4)) |
| --- | --- | --- | --- | --- | --- | --- | --- | --- |
| IEIK13 1.3% (pH3.0): self-assembling peptide having the repeating sequence Ile-Glu-Ile-Lys (IEIK), 1.3% solution at pH 3.0 | capable of homogenous mixture | homogeneously mixed across various mixing ratios | gelled even when mixed with hemostatic powder to a similar extent as observed in pure peptide solution | capable of gelation | capable of gelation | – | – | – |
| RADARADARADARADA [RADA16 2.5%] | capable of homogenous mixture | – | gelled even when mixed with hemostatic powder to a similar extent as observed in pure peptide solution | – | capable of gelation | increased | homogeneously mixed across various mixing ratios | capable of gelation |

— US20190275196A1, “Hemostatic Powders with Self-Assembling Peptide Hydrogels” (3-D Matrix, Ltd., priority 2016, published 2019)
